{"source": "patent JP2014043405A", "about": "(dated 2014)", "binders": {"B1": {"name": "IL6R-B3/IL6R-L (antibody, human IgG1)", "heavy": "not shown", "light": "DIQMTQSPSSLSASVGDRVTITCRASQDISSYLNWYQQKPGKAPKLLIYYTSRLHSGVPSRFSGSGSGTDFTFTISSLQPEDIATYYCQQGNTLPYTFGQGTKVEIK"}, "B2": {"name": "Fv4-hF1 (antibody, human IgG1, kappa)", "heavy": "not shown", "light": "DIQMTQSPSSLSASVGDSVTITCQASTDISSHLNWYQQKPGKAPELLIYYGSHLLSGVPSRFSGSGSGTDFTFTISSLEAEDAATYYCGQGNRLPYTFGQGTKVEIERTVAAPSVFIFPPSDEQLKSGTASVVCLLNNFYPREAKVQWKVDNALQSGNSQESVTEQDSKDSTYSLSSTLTLSKADYEKHKVYACEVTHQGLSSPVTKSFNRGEC"}, "B3": {"name": "IL6R-BP230/IL6R-L (antibody)", "chain 1": "QVQLQESGPGLVKPSETLSLTCAVSGHSISHDHAWSWVRQPPGEGLEWIGFISYSGITNYNPSLQGRVTISRDNSKNTLYLQMNSLRAEDTAVYYCARSLARTTAMDYWGEGTLVTVSSASTKGPSVFPLAPSSKSTSGGTAALGCLVKDYFPEPVTVSWNSGALTSGVHTFPAVLQSSGLYSLSSVVTVPSSSLGTQTYICNVNHKPSNTKVDKKVEPKSCDKTHTCPPCPAPDLLGDDSVFLFPPKPKDTLMISRTPEVTCVVVDVSDEDGEVKFNWYVDGVEVHNAKTKPREEQDNSTYRVVSVLTVLHQDWLNGKEYKCKVSNKALPRPIEKTISKAKGQPREPQVYTLPPSRDELTKNQVSLTCLVKGFYPSDIAVEWESNGQPENNYKTTPPVLDSDGSFFLYSKLTVDKSRWQQGNVFSCSVMHEALHNHYTQESLSLSP", "chain 2": "not shown"}}, "key": {"[1]": {"target": "T1, ヒトFcγRIIa (H) (human, UniProt P12318 34-217)", "T1 construct": "extracellular domain; also called FcγRIIa H型", "T1 sequence (looked up)": "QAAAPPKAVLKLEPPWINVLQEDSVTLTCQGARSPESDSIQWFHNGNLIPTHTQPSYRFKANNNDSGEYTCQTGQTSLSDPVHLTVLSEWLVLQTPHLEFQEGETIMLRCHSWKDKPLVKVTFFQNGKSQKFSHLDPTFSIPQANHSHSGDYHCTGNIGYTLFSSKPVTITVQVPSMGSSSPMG", "assay": "SPR, KD"}, "[2]": {"target": "T2, ヒトFcγRIIa (R) (human, UniProt P12318 34-217)", "T2 construct": "extracellular domain; N-glycans trimmed with Endo F1/F2/F3 for the crystals; also called FcγRIIa R型", "T2 sequence (looked up)": "T1 sequence (looked up) with H134R", "assay": "SPR, KD"}, "[3]": {"target": "ヒトFcγRIa (human, UniProt P12314 16-292)", "sequence (P12314 16-292)": "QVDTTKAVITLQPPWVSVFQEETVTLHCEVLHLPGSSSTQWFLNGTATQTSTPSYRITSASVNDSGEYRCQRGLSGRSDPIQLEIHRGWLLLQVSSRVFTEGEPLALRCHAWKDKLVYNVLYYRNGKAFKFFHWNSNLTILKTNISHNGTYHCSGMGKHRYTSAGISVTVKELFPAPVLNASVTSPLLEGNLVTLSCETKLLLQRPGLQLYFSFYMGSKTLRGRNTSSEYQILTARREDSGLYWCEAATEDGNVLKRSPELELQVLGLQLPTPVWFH", "assay": "SPR, KD"}, "[4]": {"target": "T3, マウスFcRn (mouse, UniProt Q61559 22-297, limits assumed)", "T3 construct": "also called mouse FcRn", "T3 sequence (looked up)": "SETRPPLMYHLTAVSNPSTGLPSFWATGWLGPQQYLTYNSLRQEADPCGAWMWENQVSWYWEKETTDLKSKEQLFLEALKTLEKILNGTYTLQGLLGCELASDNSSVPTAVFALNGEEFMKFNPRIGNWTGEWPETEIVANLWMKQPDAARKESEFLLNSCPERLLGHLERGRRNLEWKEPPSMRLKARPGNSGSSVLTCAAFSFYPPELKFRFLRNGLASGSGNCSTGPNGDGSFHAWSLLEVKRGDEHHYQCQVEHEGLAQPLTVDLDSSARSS", "assay": "SPR, Biacore T100, pH 7.0, 25C"}, "[5]": {"target": "T3, マウスFcRn", "assay": "SPR, Biacore T100; antibody captured on protein L, FcRn as analyte, pH 7.0, 25C; reference Fv4-IgG1"}, "[6]": {"target": "T2, ヒトFcγRIIa (R)", "assay": "SPR, KD; reference IL6R-B3/IL6R-L"}, "[7]": {"target": "T4, ヒトFcγRIIb (human, UniProt P31994 43-217)", "T4 construct": "extracellular domain; for the crystals it was expressed with kifunensine and its N-glycans trimmed with Endo F1; also called FcγRIIb細胞外領域", "T4 sequence (looked up)": "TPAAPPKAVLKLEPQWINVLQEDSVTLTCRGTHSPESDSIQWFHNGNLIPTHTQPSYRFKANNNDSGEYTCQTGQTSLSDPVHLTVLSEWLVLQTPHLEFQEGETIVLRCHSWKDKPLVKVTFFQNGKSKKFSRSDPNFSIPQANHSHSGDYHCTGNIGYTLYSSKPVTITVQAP", "assay": "SPR, KD; reference IL6R-B3/IL6R-L"}}, "note": "Changes are numbered by the printed parent chain.", "data": [{"binder": "B1", "values": [{"measurement": "binding result", "setting": "[1]", "result": "binds"}, {"measurement": "binding result", "setting": "[2]", "result": "binds"}, {"measurement": "binding result", "setting": "[3]", "result": "binds"}]}, {"binder": "B2", "values": [{"measurement": "Kd", "setting": "[4]", "result": 150, "unit": "nM"}, {"measurement": "fold improvement of affinity against IgG1", "setting": "[5]", "result": "~24.7", "unit": "fold"}]}, {"binder": "B3", "values": [{"measurement": "fold enhancement of binding against IL6R-B3/IL6R-L", "setting": "[6]", "result": "~1.9", "unit": "fold"}, {"measurement": "fold enhancement of binding against IL6R-B3/IL6R-L", "setting": "[7]", "result": "~150", "unit": "fold"}, {"measurement": "fold improvement of binding activity against IL6R-B3", "setting": "[7]", "result": 148, "unit": "fold"}]}]}
